The source of these data is patent publication US10131702B2, “Glucagon-GLP-1-GIP triple agonist compounds” (priority 2013, dated 2018).

The labels stand for the following.
T1: human GIP receptor (human, UniProt P48546 22-466)
T1 sequence: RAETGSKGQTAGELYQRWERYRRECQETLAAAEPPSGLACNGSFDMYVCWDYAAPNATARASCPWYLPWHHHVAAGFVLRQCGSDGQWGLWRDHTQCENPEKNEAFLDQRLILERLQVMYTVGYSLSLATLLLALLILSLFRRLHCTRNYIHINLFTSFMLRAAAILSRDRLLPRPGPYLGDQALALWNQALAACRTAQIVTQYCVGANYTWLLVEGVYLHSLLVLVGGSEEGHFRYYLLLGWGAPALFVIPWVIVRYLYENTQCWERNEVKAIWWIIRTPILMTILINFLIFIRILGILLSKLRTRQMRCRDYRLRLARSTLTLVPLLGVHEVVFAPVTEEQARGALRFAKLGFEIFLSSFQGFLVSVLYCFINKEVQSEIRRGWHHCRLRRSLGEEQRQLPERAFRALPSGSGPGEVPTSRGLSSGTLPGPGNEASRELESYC

B1: Compound 7 (peptide)
peptide: YAQGTFTSDYSKALDSKAAHDFVEWLLSA
HELM: PEPTIDE1{Y.[Aib].Q.G.T.F.T.S.D.Y.S.K.A.L.D.S.K.A.A.H.D.F.V.E.W.L.L.S.A.[am]}$$$$V2.0
SMILES: CC(C)C[C@H](NC(=O)[C@H](C)NC(=O)[C@H](CCCCN)NC(=O)[C@H](CO)NC(=O)[C@H](Cc1ccc(O)cc1)NC(=O)[C@H](CC(=O)O)NC(=O)[C@H](CO)NC(=O)[C@@H](NC(=O)[C@H](Cc1ccccc1)NC(=O)[C@@H](NC(=O)CNC(=O)[C@H](CCC(N)=O)NC(=O)C(C)(C)NC(=O)[C@@H](N)Cc1ccc(O)cc1)[C@@H](C)O)[C@@H](C)O)C(=O)N[C@@H](CC(=O)O)C(=O)N[C@@H](CO)C(=O)N[C@@H](CCCCN)C(=O)N[C@@H](C)C(=O)N[C@@H](C)C(=O)N[C@@H](Cc1c[nH]cn1)C(=O)N[C@@H](CC(=O)O)C(=O)N[C@@H](Cc1ccccc1)C(=O)N[C@H](C(=O)N[C@@H](CCC(=O)O)C(=O)N[C@@H](Cc1c[nH]c2ccccc12)C(=O)N[C@@H](CC(C)C)C(=O)N[C@@H](CC(C)C)C(=O)N[C@@H](CO)C(=O)N[C@@H](C)C(N)=O)C(C)C
B2: Compound 9 (peptide)
peptide: YAQGTFTSDYSIYLDEKAAHDFVEWLLSA
HELM: PEPTIDE1{Y.[Aib].Q.G.T.F.T.S.D.Y.S.I.Y.L.D.E.K.A.A.H.D.F.V.E.W.L.L.S.A.[am]}$$$$V2.0
SMILES: CC[C@H](C)[C@H](NC(=O)[C@H](CO)NC(=O)[C@H](Cc1ccc(O)cc1)NC(=O)[C@H](CC(=O)O)NC(=O)[C@H](CO)NC(=O)[C@@H](NC(=O)[C@H](Cc1ccccc1)NC(=O)[C@@H](NC(=O)CNC(=O)[C@H](CCC(N)=O)NC(=O)C(C)(C)NC(=O)[C@@H](N)Cc1ccc(O)cc1)[C@@H](C)O)[C@@H](C)O)C(=O)N[C@@H](Cc1ccc(O)cc1)C(=O)N[C@@H](CC(C)C)C(=O)N[C@@H](CC(=O)O)C(=O)N[C@@H](CCC(=O)O)C(=O)N[C@@H](CCCCN)C(=O)N[C@@H](C)C(=O)N[C@@H](C)C(=O)N[C@@H](Cc1c[nH]cn1)C(=O)N[C@@H](CC(=O)O)C(=O)N[C@@H](Cc1ccccc1)C(=O)N[C@H](C(=O)N[C@@H](CCC(=O)O)C(=O)N[C@@H](Cc1c[nH]c2ccccc12)C(=O)N[C@@H](CC(C)C)C(=O)N[C@@H](CC(C)C)C(=O)N[C@@H](CO)C(=O)N[C@@H](C)C(N)=O)C(C)C
B3: Compound 8 (peptide)
peptide: YAQGTFTSDYSKYLESKAAHDFVEWLLSA
HELM: PEPTIDE1{Y.[Aib].Q.G.T.F.T.S.D.Y.S.K.Y.L.E.S.K.A.A.H.D.F.V.E.W.L.L.S.A.[am]}$$$$V2.0
SMILES: CC(C)C[C@H](NC(=O)[C@H](CC(C)C)NC(=O)[C@H](Cc1c[nH]c2ccccc12)NC(=O)[C@H](CCC(=O)O)NC(=O)[C@@H](NC(=O)[C@H](Cc1ccccc1)NC(=O)[C@H](CC(=O)O)NC(=O)[C@H](Cc1c[nH]cn1)NC(=O)[C@H](C)NC(=O)[C@H](C)NC(=O)[C@H](CCCCN)NC(=O)[C@H](CO)NC(=O)[C@H](CCC(=O)O)NC(=O)[C@H](CC(C)C)NC(=O)[C@H](Cc1ccc(O)cc1)NC(=O)[C@H](CCCCN)NC(=O)[C@H](CO)NC(=O)[C@H](Cc1ccc(O)cc1)NC(=O)[C@H](CC(=O)O)NC(=O)[C@H](CO)NC(=O)[C@@H](NC(=O)[C@H](Cc1ccccc1)NC(=O)[C@@H](NC(=O)CNC(=O)[C@H](CCC(N)=O)NC(=O)C(C)(C)NC(=O)[C@@H](N)Cc1ccc(O)cc1)[C@@H](C)O)[C@@H](C)O)C(C)C)C(=O)N[C@@H](CO)C(=O)N[C@@H](C)C(N)=O
B4: Compound 6 (peptide)
peptide: YAQGTFTSDYSKYLDSKAARDFVEWLLSA
HELM: PEPTIDE1{Y.[Aib].Q.G.T.F.T.S.D.Y.S.K.Y.L.D.S.K.A.A.R.D.F.V.E.W.L.L.S.A.[am]}$$$$V2.0
SMILES: CC(C)C[C@H](NC(=O)[C@H](CC(C)C)NC(=O)[C@H](Cc1c[nH]c2ccccc12)NC(=O)[C@H](CCC(=O)O)NC(=O)[C@@H](NC(=O)[C@H](Cc1ccccc1)NC(=O)[C@H](CC(=O)O)NC(=O)[C@H](CCCNC(=N)N)NC(=O)[C@H](C)NC(=O)[C@H](C)NC(=O)[C@H](CCCCN)NC(=O)[C@H](CO)NC(=O)[C@H](CC(=O)O)NC(=O)[C@H](CC(C)C)NC(=O)[C@H](Cc1ccc(O)cc1)NC(=O)[C@H](CCCCN)NC(=O)[C@H](CO)NC(=O)[C@H](Cc1ccc(O)cc1)NC(=O)[C@H](CC(=O)O)NC(=O)[C@H](CO)NC(=O)[C@@H](NC(=O)[C@H](Cc1ccccc1)NC(=O)[C@@H](NC(=O)CNC(=O)[C@H](CCC(N)=O)NC(=O)C(C)(C)NC(=O)[C@@H](N)Cc1ccc(O)cc1)[C@@H](C)O)[C@@H](C)O)C(C)C)C(=O)N[C@@H](CO)C(=O)N[C@@H](C)C(N)=O
B5: Compound 10 (peptide)
peptide: YAQGTFTSDYSIYLDSKAAKDFVEWLLSA
HELM: PEPTIDE1{Y.[Aib].Q.G.T.F.T.S.D.Y.S.I.Y.L.D.S.K.A.A.K.D.F.V.E.W.L.L.S.A.[am]}$$$$V2.0
SMILES: CC[C@H](C)[C@H](NC(=O)[C@H](CO)NC(=O)[C@H](Cc1ccc(O)cc1)NC(=O)[C@H](CC(=O)O)NC(=O)[C@H](CO)NC(=O)[C@@H](NC(=O)[C@H](Cc1ccccc1)NC(=O)[C@@H](NC(=O)CNC(=O)[C@H](CCC(N)=O)NC(=O)C(C)(C)NC(=O)[C@@H](N)Cc1ccc(O)cc1)[C@@H](C)O)[C@@H](C)O)C(=O)N[C@@H](Cc1ccc(O)cc1)C(=O)N[C@@H](CC(C)C)C(=O)N[C@@H](CC(=O)O)C(=O)N[C@@H](CO)C(=O)N[C@@H](CCCCN)C(=O)N[C@@H](C)C(=O)N[C@@H](C)C(=O)N[C@@H](CCCCN)C(=O)N[C@@H](CC(=O)O)C(=O)N[C@@H](Cc1ccccc1)C(=O)N[C@H](C(=O)N[C@@H](CCC(=O)O)C(=O)N[C@@H](Cc1c[nH]c2ccccc12)C(=O)N[C@@H](CC(C)C)C(=O)N[C@@H](CC(C)C)C(=O)N[C@@H](CO)C(=O)N[C@@H](C)C(N)=O)C(C)C

For the first experiment, the target named is T1, human GIP receptor. As to the kind of experiment: cell-based or functional assay.
Consider B1, for which the “EC50 (cAMP induction)” value worked out at 0.031 nM.

Take B2: the “EC50 (cAMP induction)” value was found to be 0.006 nM.

As for B3, the “EC50 (cAMP induction)” value turned out to be 0.015 nM.

Consider B4, for which the “EC50 (cAMP induction)” value was determined as 0.01 nM.

Take B5: the “EC50 (cAMP induction)” value was 0.012 nM.

The target of the next experiment is T2, human glucagon receptor (human, UniProt P47871 26-477). Nature of the experiment: cell-based or functional assay.
T2 sequence (P47871 26-477): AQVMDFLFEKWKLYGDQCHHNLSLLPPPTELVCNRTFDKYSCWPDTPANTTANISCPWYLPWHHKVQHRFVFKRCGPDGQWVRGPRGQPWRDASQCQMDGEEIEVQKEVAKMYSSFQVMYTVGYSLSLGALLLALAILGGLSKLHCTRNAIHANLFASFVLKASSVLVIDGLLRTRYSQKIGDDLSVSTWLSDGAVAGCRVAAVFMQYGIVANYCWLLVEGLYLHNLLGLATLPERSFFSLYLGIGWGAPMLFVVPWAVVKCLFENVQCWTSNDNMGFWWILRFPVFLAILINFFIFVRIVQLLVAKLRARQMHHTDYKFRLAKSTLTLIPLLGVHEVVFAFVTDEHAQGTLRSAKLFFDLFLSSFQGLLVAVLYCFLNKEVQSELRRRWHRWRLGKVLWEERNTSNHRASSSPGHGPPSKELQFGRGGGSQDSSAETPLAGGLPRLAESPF
As for B1, the “EC50 (cAMP induction)” value came out at 0.086 nM.

Regarding B2, the “EC50 (cAMP induction)” value was determined as 0.097 nM.

Regarding B3, the “EC50 (cAMP induction)” value was determined as 0.042 nM.

Consider B4, for which the “EC50 (cAMP induction)” value is 0.018 nM.

Take B5: the “EC50 (cAMP induction)” value was 0.1 nM.

In a further experiment the target is T3, human glucagon-like peptide 1 receptor (human, UniProt P43220 24-463). Nature of the experiment: cell-based or functional assay.
On to B1, for which the “EC50 (cAMP induction)” value was found to be 0.086 nM.

B2: the “EC50 (cAMP induction)” value stood at 0.097 nM.

Take B3: the “EC50 (cAMP induction)” value came out at 0.042 nM.

Regarding B4, the “EC50 (cAMP induction)” value stood at 0.018 nM.

As for B5, the “EC50 (cAMP induction)” value came out at 0.1 nM.

A further experiment deals with T1, human GIP receptor. Nature of the experiment: cell-based or functional assay. This is another data set of the same source.
B1: the “EC50 (cAMP induction)” value stood at 0.42 nM.

Regarding B2, the “EC50 (cAMP induction)” value amounted to 0.056 nM.

B3: the “EC50 (cAMP induction)” value worked out at 0.2 nM.

In the case of B4, the “EC50 (cAMP induction)” value worked out at 0.34 nM.

In the case of B5, the “EC50 (cAMP induction)” value came out at 0.24 nM.

The next experiment deals with T2, human glucagon receptor. Nature of the experiment: cell-based or functional assay. This is another data set of the same source.
As to B1, the “EC50 (cAMP induction)” value was 0.086 nM.

As for B2, the “EC50 (cAMP induction)” value turned out to be 0.097 nM.

As to B3, the “EC50 (cAMP induction)” value was 0.042 nM.

In the case of B4, the “EC50 (cAMP induction)” value was determined as 0.018 nM.

As to B5, the “EC50 (cAMP induction)” value was found to be 0.1 nM.

For another experiment, the target named is T3, human glucagon-like peptide 1 receptor. Nature of the experiment: cell-based or functional assay. This is another data set of the same source.
On to B1, for which the “EC50 (cAMP induction)” value amounted to 0.031 nM.

Turning to B2, the “EC50 (cAMP induction)” value was determined as 0.0055 nM.

In the case of B3, the “EC50 (cAMP induction)” value was 0.015 nM.

Regarding B4, the “EC50 (cAMP induction)” value amounted to 0.0095 nM.

On to B5, for which the “EC50 (cAMP induction)” value stood at 0.012 nM.
